Results from US20250145690A1 (US Dept. of Health and Human Services, published 2025).
Residue numbers refer to the chain shown, from its start.

T1: HCoV-NL63 spike protein (Sino Biological 40604-V08B) (HCoV-NL63, UniProt Q6Q1S2 19-1296)
T1 sequence: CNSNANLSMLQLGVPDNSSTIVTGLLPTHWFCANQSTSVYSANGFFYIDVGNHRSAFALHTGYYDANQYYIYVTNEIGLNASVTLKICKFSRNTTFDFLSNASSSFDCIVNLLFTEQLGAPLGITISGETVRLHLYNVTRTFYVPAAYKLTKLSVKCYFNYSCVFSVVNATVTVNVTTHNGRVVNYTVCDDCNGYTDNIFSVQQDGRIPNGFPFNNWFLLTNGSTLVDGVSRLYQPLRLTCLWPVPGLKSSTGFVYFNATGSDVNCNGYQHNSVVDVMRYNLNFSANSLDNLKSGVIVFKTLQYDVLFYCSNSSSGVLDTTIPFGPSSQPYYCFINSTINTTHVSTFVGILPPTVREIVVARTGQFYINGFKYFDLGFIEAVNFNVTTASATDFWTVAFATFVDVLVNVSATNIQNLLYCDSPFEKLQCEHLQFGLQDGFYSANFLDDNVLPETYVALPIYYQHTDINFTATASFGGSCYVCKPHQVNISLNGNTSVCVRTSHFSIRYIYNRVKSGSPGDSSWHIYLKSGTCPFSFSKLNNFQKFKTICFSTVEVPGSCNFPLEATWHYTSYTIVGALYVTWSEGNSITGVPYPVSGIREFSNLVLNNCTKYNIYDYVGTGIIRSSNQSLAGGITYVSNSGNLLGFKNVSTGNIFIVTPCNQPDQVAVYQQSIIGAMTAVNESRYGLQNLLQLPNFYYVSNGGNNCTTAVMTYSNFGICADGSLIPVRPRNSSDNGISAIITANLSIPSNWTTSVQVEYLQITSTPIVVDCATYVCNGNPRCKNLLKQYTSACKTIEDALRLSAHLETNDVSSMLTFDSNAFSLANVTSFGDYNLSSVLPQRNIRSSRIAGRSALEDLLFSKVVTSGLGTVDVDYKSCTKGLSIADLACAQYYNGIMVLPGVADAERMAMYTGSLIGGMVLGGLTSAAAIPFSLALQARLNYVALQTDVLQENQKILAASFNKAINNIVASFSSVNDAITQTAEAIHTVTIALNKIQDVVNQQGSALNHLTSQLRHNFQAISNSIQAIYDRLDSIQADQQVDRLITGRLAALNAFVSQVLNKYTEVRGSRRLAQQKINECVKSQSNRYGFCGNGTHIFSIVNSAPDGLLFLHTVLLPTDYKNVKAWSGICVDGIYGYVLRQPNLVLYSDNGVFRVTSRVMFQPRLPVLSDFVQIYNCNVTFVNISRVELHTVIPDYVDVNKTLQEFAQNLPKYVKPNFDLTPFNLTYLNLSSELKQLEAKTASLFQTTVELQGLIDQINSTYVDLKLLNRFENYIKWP

T2: HCoV-229E spike protein (Sino Biological 40605-V08B) (HCoV-229E, UniProt P15423 16-1115)
T2 sequence: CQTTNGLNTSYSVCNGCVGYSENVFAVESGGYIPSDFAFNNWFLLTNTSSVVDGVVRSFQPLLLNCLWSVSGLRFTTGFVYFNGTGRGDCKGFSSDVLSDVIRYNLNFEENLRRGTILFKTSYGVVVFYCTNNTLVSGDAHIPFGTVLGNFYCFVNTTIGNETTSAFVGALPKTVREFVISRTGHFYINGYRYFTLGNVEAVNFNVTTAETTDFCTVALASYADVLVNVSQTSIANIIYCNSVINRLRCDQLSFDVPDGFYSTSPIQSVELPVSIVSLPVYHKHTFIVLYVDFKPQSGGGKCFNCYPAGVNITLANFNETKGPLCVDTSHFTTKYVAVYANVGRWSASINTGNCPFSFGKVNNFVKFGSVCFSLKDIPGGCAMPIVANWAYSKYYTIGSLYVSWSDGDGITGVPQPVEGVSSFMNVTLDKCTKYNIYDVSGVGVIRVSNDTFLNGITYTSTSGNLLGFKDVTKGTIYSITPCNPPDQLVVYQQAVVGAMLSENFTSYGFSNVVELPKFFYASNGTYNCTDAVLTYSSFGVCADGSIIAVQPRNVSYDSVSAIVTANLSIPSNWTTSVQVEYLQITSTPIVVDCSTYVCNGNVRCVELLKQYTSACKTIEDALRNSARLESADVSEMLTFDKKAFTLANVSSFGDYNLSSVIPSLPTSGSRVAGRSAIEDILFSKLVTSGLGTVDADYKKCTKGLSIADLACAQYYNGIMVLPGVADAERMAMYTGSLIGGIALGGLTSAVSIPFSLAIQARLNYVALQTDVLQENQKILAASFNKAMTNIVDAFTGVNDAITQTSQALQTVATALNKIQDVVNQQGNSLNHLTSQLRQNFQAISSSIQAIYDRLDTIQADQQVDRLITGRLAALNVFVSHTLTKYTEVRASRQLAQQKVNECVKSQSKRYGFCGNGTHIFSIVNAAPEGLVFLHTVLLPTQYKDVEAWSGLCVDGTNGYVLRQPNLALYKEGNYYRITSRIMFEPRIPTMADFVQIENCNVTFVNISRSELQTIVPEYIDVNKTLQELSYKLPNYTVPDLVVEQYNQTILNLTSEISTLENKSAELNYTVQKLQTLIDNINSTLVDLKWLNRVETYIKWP

B1: COV93-61 (antibody, V domains shown)
VH: EVQLVQSGAEVKKPGESLKISCKGSGYSFTTFWIGWVRQMPGKGLEWVGVIYPDDSDTRYSPSFQGQVTMSADKSINTAYLQWSSLKASDTAVYYCARRNCDAALCYLGTYDYWGQGTVVTVSS
VL: QSALTQPPSASGSPGQSVTISCTGTISDVGRYDFVSWYQHHPGKAPKLIIYEVTKRPSGVPDRFSGSKSGNTASLTVSGLQAEDEADYYCNSYAGHNNFVIFGGGTKLTVL
B2: COV77-43 (antibody, V domains shown)
VH: QVQLVESGGGVVQPGRSLRLSCSASGFTFSDYGMNWVRQAPGKGLEWVAMIWYDGSNYFYRDSVKGRFAISRDNSKNMVFLQMDNLRAEDTAVYFCARGTHFWSGLSLDAFDMWGQGTVVTVSS
VL: EIVMTQSPLSLPVTPGEPASISCRSSRSLLHYNGHNYLDWYLQKPGQSPQLLIYLGSNRAPGVPDRFSGSGSGTDFTLKISRVEAEDVGVYYCMQALQLNLITFGQGTRLEIK
B3: COV93-60 (antibody, V domains shown)
VH: QVQLQESGPGLVKPSETLFLTCAVSGGSINSSYWSWIRQPPGKGLEWIGYIYYRGSTNYNPSLKSRVTISVDTSKNQFSLKLNSVTAADTAIYYCARENLWNWFDPWGQGILVTVSS
VL: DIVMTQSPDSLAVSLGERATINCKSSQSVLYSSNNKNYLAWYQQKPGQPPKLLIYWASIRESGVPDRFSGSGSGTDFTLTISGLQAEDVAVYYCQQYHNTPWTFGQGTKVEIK
B4: COV77-76 (antibody, V domains shown)
VH: QVQLQESGPGLVKPSETLSLTCTVSGGSISSFYWSWIRQPPGKRLEWIGYIYYRGSTNYNPSLKSRVTMSVDTSKNQFSLKLSSVTAADTAVYYCARELPNNWLDPWGQGTLVTVSS
VL: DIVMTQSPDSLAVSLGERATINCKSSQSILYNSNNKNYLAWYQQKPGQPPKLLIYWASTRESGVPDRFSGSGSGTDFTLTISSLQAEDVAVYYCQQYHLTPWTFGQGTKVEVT
B5: COV89-03 (antibody, V domains shown)
VH: B4 VH with S30R, F32N, I48L, R54S, M69I, K81N, A96V, L99M, N101Y, L104I
VL: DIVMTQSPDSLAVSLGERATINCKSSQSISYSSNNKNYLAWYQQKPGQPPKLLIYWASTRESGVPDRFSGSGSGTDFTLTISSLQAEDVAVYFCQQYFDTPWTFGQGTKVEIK
B6: COV77-35 (antibody, V domains shown)
VH: QMQLQESGPGLVKPSQTLSLTCAVSGGSISSDGYYWNWVRQHPGKGLELIAYIYYNGRPYYNPSLRSRVNISLDTSMNQFSLRVKSLTAADTAVYYCARGRLGYCAAGSCFLDSFDYWGQGALVTVSS
VL: EIVMTQYPATLSVSPGETATLSCRASESISRNLAWYQQKPGQAPRLLIYGASTRATGIPARFSGSGSGTEFALTISSLQAEDFAVYSCQQYHNWLLTFGGGTKVEIK
B7: COV77-14 (antibody, V domains shown)
VH: QVQLQESGPGLVKASQTLSLTCAVSGGSISSGDYYWTWIRSHPGKGLEWIAYIYYNGRTYYNPSLKSRLTISIDRSKNEFSLKVRSVTAADSAAYYCARGRLGFCAAGSCFLDSLDFWGQGTLVTVSS
VL: B6 VL with Y7S, T18R, A19V, R31N, T74I, A80S, S87F, H92Y
B8: COV77-46 (antibody, V domains shown)
VH: QVQLQESGPGLVKPSQPLSLTCAVSGDSISSGGNYWSWIRQHPGKGLECIAYFYYTGRTYYNPSLKSRVTISLDTSKNQFSLKVSSVTAADTAVYFCARGRLGHCGGGSCFLDPLDYWGQGSLVTVSS
VL: EIVMTQSPATLSVSPGERATLSCRASERISSNLAWSQHKVGQAPRLLIYGASTRATGIPARFSGSGSGTEFTLTISSLQSEDFAVYYCHQYHNWLLTFGGGTKVEIK

Each binder was assayed against T1, HCoV-NL63 spike protein (Sino …) (assay: bead flow cytometry, AUC minus CD4).

| Binder | binding result |
| --- | --- |
| B1 | no binding (tested: 200 µg/mL) |
| B2 | no binding (tested: 200 µg/mL) |
| B3 | no binding (tested: 200 µg/mL) |
| B4 | no binding (tested: 200 µg/mL) |
| B5 | no binding (tested: 200 µg/mL) |
| B6 | no binding (tested: 200 µg/mL) |
| B7 | no binding (tested: 200 µg/mL) |
| B8 | no binding (tested: 200 µg/mL) |

The binders below were run against T2, HCoV-229E spike protein (Sino …) (assay: bead flow cytometry, AUC minus CD4).

| Binder | binding result |
| --- | --- |
| B1 | no binding (tested: 200 µg/mL) |
| B2 | no binding (tested: 200 µg/mL) |
| B3 | no binding (tested: 200 µg/mL) |
| B4 | no binding (tested: 200 µg/mL) |
| B5 | no binding (tested: 200 µg/mL) |
| B6 | no binding (tested: 200 µg/mL) |
| B7 | no binding (tested: 200 µg/mL) |
| B8 | no binding (tested: 200 µg/mL) |

What follows are binders tested against SARS-CoV-2 spike receptor binding domain (RBD), recombinant (SARS-CoV-2, UniProt P0DTC2 319-541) (assay: bead flow cytometry, AUC minus CD4).

| Binder | binding result |
| --- | --- |
| B1 | no binding (tested: 200 µg/mL) |
| B2 | no binding (tested: 200 µg/mL) |
| B3 | no binding (tested: 200 µg/mL) |
| B4 | no binding (tested: 200 µg/mL) |
| B5 | no binding (tested: 200 µg/mL) |
| B6 | no binding (tested: 200 µg/mL) |
| B7 | no binding (tested: 200 µg/mL) |
| B8 | no binding (tested: 200 µg/mL) |

What follows are binders tested against SARS-CoV-2 spike N-terminal domain (NTD), recombinant (SARS-CoV-2, UniProt P0DTC2 14-305) (assay: bead flow cytometry, AUC minus CD4).

| Binder | binding result |
| --- | --- |
| B1 | no binding (tested: 200 µg/mL) |
| B2 | no binding (tested: 200 µg/mL) |
| B3 | no binding (tested: 200 µg/mL) |
| B4 | no binding (tested: 200 µg/mL) |
| B5 | no binding (tested: 200 µg/mL) |
| B6 | no binding (tested: 200 µg/mL) |
| B7 | no binding (tested: 200 µg/mL) |
| B8 | no binding (tested: 200 µg/mL) |
